Reference: US20150259684

Target: T1, NM Cas9 (Neisseria meningitidis) (UniProt C9X1G5)
T1 sequence: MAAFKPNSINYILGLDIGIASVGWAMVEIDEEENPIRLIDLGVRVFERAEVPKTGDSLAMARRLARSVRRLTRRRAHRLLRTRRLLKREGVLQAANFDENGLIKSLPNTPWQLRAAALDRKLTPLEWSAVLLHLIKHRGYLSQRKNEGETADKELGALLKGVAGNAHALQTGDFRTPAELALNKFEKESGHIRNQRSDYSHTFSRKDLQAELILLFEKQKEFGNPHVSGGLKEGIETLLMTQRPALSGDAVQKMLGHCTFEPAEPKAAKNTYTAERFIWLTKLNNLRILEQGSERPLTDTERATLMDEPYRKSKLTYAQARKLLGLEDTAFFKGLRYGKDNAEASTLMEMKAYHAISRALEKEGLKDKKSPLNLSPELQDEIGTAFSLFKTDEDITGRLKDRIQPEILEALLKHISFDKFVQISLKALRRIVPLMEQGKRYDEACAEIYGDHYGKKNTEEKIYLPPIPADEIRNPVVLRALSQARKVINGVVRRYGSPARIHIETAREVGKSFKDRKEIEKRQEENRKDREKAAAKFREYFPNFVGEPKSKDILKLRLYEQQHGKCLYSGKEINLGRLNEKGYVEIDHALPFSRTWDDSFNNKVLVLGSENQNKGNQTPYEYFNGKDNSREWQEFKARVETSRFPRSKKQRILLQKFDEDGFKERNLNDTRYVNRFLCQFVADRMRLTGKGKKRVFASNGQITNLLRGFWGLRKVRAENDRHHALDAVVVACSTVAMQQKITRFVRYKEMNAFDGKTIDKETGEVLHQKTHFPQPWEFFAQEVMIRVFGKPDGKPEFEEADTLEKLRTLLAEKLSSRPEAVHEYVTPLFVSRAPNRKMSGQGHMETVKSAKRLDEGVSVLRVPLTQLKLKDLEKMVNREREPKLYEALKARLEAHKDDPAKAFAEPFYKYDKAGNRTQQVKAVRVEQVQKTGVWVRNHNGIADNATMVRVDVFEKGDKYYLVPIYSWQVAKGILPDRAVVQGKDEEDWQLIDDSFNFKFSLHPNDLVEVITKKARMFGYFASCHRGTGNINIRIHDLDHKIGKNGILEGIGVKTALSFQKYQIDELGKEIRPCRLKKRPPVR
Test: cell_activity
Details: PAM NCCAGGTN depleted only 4-fold; protospacer for this value not stated

Sequence: UACCAUCUCAAGCUUGUUGAGUUGUAGCUCCCUUUCUCAUUUCGCAGUGCUACAAU / TACCATCTCAAGCTTGTTGANCCAGGTN / NACCTGGNTCAACAAGCTTGAGATGGTA
- activity (fold depletion): 4
